By Km is commonly meant the substrate concentration at which the rate is half of its maximum.

This note sets out measurements from article doi:10.1101/2021.11.20.466133v3.

Substrate in data set [1]: Nc1ncnc2c1ncn2[C@@H]1O[C@H](COP(=O)(O)OP(=O)(O)OP(=O)(O)O)[C@@H](O)[C@H]1O
Kind of data set: purified protein. The note with it: pH 7.5, 37 °C, 5 mM MgCl2.

Substrate in data set [2]: [H][C@@]1(O)[C@]2([H])OP(=O)(O)OC[C@@]3([H])O[C@@]([H])(n4cnc5c(N)ncnc54)[C@]([H])(O)[C@]3([H])OP(=O)(O)OC[C@@]2([H])O[C@@]1([H])n1cnc2c(N)ncnc21
The data set is described as follows: purified protein. The note with it: pH 7.5, 5 mM MgCl2.

B1: MsDisA (Mycolicibacterium smegmatis MC2 155) (protein)
chain: MAVKSGARSGRNVVHLARPTLRETLGRLAPGTPLRDGLERILRGRTGALIVLGYDDSVEAICDGGFVLDVRYAPTRLRELSKMDGAVVLSSDGSRILRANVQLVPDPSIPTDESGTRHRSAERTAIQTGYPVISVSHSMSIVTVYVAGERHVVPDSATILSRANQTIATLERYKGRLDEVSRQLSTAEIEDFVTLRDVMTVVQRLEMVRRISLEIDADVVELGTDGRQLKLQLDELVGDNETARELIVRDYHANPDPPTAAQVAATLEELDSLSDSELLDFTVLARVFGYPSTAEAQDSAMSSRGYRAMAAIPRLQFAHVDLLVRSFGSLQNLLAASADDLQSVDGIGSMWARHIREGLSLLAESTIADRLA
With B1, the Michaelis-Menten constant (Km) in data set [1] is 480 µM.

B2: MsPDE (Mycolicibacterium smegmatis MC2 155) (protein)
chain: MPVTTTDPKTGLLTGPDAQIAGARVDARGAADLLTAASSVSVICHVYPDADTIGAGLALAQVLAASGKHVEVSFATPAQLPESLQSLPGGHLLVAPEAMRRDADLVVTVDIPSINRLGALSGLAGPGREVLVIDHHASNQLFGTANYIDPSADSTTMLVAELLDAWGKPIDEKVAHCLYAGLTTDTGSFRWATARAHRLAARLVELGVDNASISRTLLDTHPFAWLPMLSRVLATARLLPDALDGRGFVYAVVPHDEWSEARPEEVESIVDIVRTTQQAEVAAVFKEIEPMHWSVSMRAKSVNLASVASAFGGGGHPHAAGYSATGSADDVVQALARALG
As for B2, the Michaelis constant (Km) in data set [2] came out at 370 µM.
